Values of other authors in paper PMC6653659.

Target: glucocorticoid receptor LBD (Homo sapiens) (UniProt P04150)

In the case of “glucocorticoid receptor LBD (from UniProt P04150)”, the Kd is listed as 1.5 µM.
